# Experimental data as given in patent US20240139239A1.
# Target: OVA peptide 323-339 presented on MHC-II molecules (Gallus gallus (Chicken)) (UniProt P01012)
sequence,measurement,value
"T cell receptor of OT-II CD4+ T cells, specific for ovalbumin (OVA) peptide presented in the context of MHC-II molecules (TCR)",proliferation (CTVlow) of OT-II CD4+ T cells after 5 days of co-culture with peptide-loaded PIP-induced cells,10.7%
